Data as given in US20160046721A1.

How the values were obtained:
human ER-α36 (human) [1] = biological target: human ER-α36 (human) (UniProt P03372); test: flow cytometry on K562 cells, isotype control, concentration not given
ER-α36 LBD (3T3 Clone#4) = test: flow cytometry on 3T3 cells, ER-α36 LBD Clone#4, isotype control at 2.5 µg/ml
human ER-α36 (human) [2] = biological target: human ER-α36 (human) (UniProt P03372); test: flow cytometry on SK-BR-3 cells, isotype control; lower left panel without sample name, assigned by the order of the samples
human ER-α36 (human) [3] = biological target: human ER-α36 (human) (UniProt P03372); test: flow cytometry on MCF-7 cells, isotype control; lower left panel, which carries no sample name: assigned by peak height and by the order of the samples
human ER-α36 (human) [4] = biological target: human ER-α36 (human) (UniProt P03372); test: flow cytometry on MHCC-97H cells, isotype control; second lower panel without sample name, assigned by peak height against histogram 3 of the overlay
human ER-α36 (human) [5] = biological target: human ER-α36 (human) (UniProt P03372); test: flow cytometry on MHCC-97H cells, isotype control; first lower panel without sample name, assigned by peak height (about 75) against histogram 4 of the overlay
human ER-α36 (human) [6] = biological target: human ER-α36 (human) (UniProt P03372); test: flow cytometry on 3T3 cells, ER-α36 Full length Clone#2, isotype control at 2.5 µg/ml

human ER-α36 (human), sequence (P03372 other isoform, or with tags, fused parts or gaps): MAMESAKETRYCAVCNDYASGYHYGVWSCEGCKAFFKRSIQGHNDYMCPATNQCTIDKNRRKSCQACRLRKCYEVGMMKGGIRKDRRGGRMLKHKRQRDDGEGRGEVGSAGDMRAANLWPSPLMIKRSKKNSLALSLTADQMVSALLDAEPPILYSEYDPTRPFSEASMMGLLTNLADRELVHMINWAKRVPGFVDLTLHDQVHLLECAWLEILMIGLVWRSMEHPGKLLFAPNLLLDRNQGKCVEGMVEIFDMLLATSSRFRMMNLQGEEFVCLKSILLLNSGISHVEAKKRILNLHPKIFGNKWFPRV
ER-α36 LBD (3T3 Clone#4), sequence (single chain, as listed by the source): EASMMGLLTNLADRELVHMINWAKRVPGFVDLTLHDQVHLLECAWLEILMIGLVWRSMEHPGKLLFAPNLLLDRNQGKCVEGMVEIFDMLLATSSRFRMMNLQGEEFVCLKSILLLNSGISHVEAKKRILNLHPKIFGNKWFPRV

Substance: mouse IgG2b (antibody)
- Geom. Mean FL1 (human ER-α36 (human) [1]): 24.3
- %Gated (region B) (ER-α36 LBD (3T3 Clone#4)): 4.93%
- Yellow-A subset (percent of cells in the gate) (human ER-α36 (human) [2]): 13.1%
- Yellow-A subset (percent of cells in the gate) (human ER-α36 (human) [3]): 19.9%
- Yellow-A subset (percent of cells in the gate) (human ER-α36 (human) [4]): 5.68%
- Yellow-A subset (percent of cells in the gate) (human ER-α36 (human) [5]): 6.82%
- %Gated (region B) (human ER-α36 (human) [6]): 4.86%
